The values that follow come from patent US20160024200A1 (published 2016).

Experiment [1] concerns the target T1, human granulocyte macrophage colony-stimulating factor (GM-CSF) (human, UniProt P04141 18-144). In words: cell-based or functional assay.
For experiment [2], the target named is T1, human granulocyte macrophage …. Kind of experiment: cell-based or functional assay. The source holds these as a separate data set.
For experiment [3] the target is unchanged. Kind of experiment: cell-based or functional assay. This is another data set of the same source.
For experiment [4] the target is unchanged. Kind of experiment: SPR, Biacore 3000, mAb captured on anti-human IgG, GM-CSF as analyte, 25 C. As for the experimental part:
The SPR experiments were performed at 25° C. on a Biacore 3000 (GE Healthcare, Piscataway, N.J.) using a CM5 sensor chip and HBS-P (10 mM HEPES, pH 7.4, 150 mM NaCl, 0.01% P-20) or HBS-EP (10 mM HEPES, pH 7.4, 150 mM NaCl, 3 mM EDTA, 0.01% P-20). Anti-human IgG (Fc) (GE Healthcare) or anti-human IgG (Southern Biotech, cat. #2040-01) was immobilized similarly on the experimental and reference flow cells using standard amine coupling. […] GM-CSF made in-house or purchased (Genscript, Cat. #Z00349), was injected over the mAb-coated cell and reference cell at the following concentrations: 100, 50, 25, 12.5, 6.25, 3.12, 1.5 and 0.8 nM. The flow rate was 30 μL/min and triplicate blank injections and replicate injections of the 12.5 nM GM-CSF were included to account for any drift and to ensure assay reproducibility. […] To regenerate the capture surface, two 30 sec pulses of a 2:1 mixture of glycine (pH 2) to 3 M MgCI was utilized. All data were double reference subtracted in that they were subtracted both from the reference cell and from a blank injection. Data were fit to a 1:1 model with (for those with very fast on-rates) or without a mass transport term using the Biacore 3000 evaluation software.

T1 sequence (P04141 18-144 limits assumed): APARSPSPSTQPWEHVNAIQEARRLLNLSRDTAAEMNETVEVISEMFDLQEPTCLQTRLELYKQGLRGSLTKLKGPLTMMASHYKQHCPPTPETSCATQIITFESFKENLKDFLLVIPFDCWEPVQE

B1: F1 human monoclonal antibody against GM-CSF (antibody, V domains shown)
VH: QVQLQESGPGVVKPSETLSLTCSVSDSAIRKYYWSWIRQPPGQGLEYIGYIYASGSSFYNPSFKSRVSMSVDATNNQFYLKLTSVTAADTAVYYCAAITGTTDLWGRGTLVTVSS
VL: DIQMTQSPSSVSASVGDRVTITCRASQGINRRLAWYQQKPGKAPKRLIYAVSTLQSGVPSRFNGSGSGTDFTLTVNNVQPDDLAMYFCLQSNNYPLTFGGGTKVEIK
notes: also called F1 antibody; purified F1
As to B1, the “IC50 (read off the curve); CD11b on human neutrophils in whole blood with 10 ng/mL GM-CSF (FACS), % inhibition” value in experiment [1] is roughly 50 ng/mL. Besides, the “IC50 (ng/mL), TF-1 assay” value in experiment [2] was 0.8 ng/mL. In experiment [3], the “IC50, TF-1 assay” value is less than 1 ng/mL and the “IC50, TF-1 assay (200 pg/mL GM-CSF)” value lay within 0.7 to 0.8 ng/mL. In experiment [4], binding was put at a Kd of 0.12 nM; the koff (in general, the rate constant with which the complex falls apart) was determined as 0.0001 s⁻¹; the kon (commonly a measure of how fast the partners come together) was 830000 M⁻¹ s⁻¹.
